Data published in patent publication US20240317816A1, “PEPTIDES FOR IMMUNOTHERAPY” (Genevive, Inc., priority 2021, published 2024).
Where no end group is shown, it is not given here.

B1: SG-3-00802 (peptide)
peptide: MKVRPSVKPMCEKCKIIRRKGRVMVICENPKHKQRQG
notes: also called PEP802

Legend:
[1] = system: Unstimulated human T cells; test: Transwell T cell migration towards CXCR3 ligands; type: cell-based; settings: CXCL11, 2.5 hours
Procedure: T cell migration towards CXCR3 ligands in the presence of SG-3-00802 and SG-3-06683 was tested using a Transwell migration assay. Suboptimal concentrations of each ligand (CXCR3 ligands CXCL9, CXCL10, and CXCL11) were added to the bottom of the transwell with increasing doses of SG-3-00802 or SG-3-006683. An optimal concentration of ligand was used as positive control, as indicated in the graphs.
Unstimulated human T cells were resuspended in AIM V serum-free media, then were added to the top chamber of a […] polycarbonate Transwell insert and incubated with the indicated concentrations of the ligands and peptides in the bottom chamber for 2.5 hours at 37° C. T cells that migrated to the bottom chamber were collected, stained with anti-CD3 antibody, and counted using Beckman Coulter Cytoflex flow cytometer. 123count eBeads counting beads were added to each of the wells for obtaining the absolute cell counts.

[2] = target: T1, human chemokine (C-X-C motif) receptor 3 (Homo sapiens, UniProt P49682); test: Positive allosteric modulator assay method 1 (PAM1), Tango CXCR3-bla U2OS; type: cell-based; settings: retro-inverso peptide vs SG-3-00802
T1 construct: TEV protease site; Gal4-VP16 transcription factor ('Ga14-VP16' [sic]); Tango cell line; host or cells: Tango GPCR-bla U2OS
T1 sequence (P49682 1-368): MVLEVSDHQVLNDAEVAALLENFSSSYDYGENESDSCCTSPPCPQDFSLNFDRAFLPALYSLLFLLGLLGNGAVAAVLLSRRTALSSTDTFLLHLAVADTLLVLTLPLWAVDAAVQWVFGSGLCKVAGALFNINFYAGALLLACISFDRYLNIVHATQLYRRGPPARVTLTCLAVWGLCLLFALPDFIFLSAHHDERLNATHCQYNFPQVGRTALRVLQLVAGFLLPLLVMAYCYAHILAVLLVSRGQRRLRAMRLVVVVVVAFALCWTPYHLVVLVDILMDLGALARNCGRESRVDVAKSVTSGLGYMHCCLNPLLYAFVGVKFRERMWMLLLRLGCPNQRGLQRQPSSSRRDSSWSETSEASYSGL
Text: To assay positive allosteric modulator activity of SG-3-00802 (SEQ ID NO: 1) and SG-3-006683 in CXCR3 cell lines, the cell line Tango™ CXCR3-bla U2OS was used in a positive allosteric modulator assay with two different methods, as described below.
(§1) Tango™ CXCR3-bla U2OS cells contain the human chemokine (C-X-C motif) receptor 3 linked to a TEV protease site and a Ga14-VP16 transcription factor stably integrated into the Tango™ GPCR-bla U2OS cell line. This parental cell line stably expresses a beta-arrestin/TEV protease fusion protein and the beta-lactamase reporter gene under the control of a UAS response element. The Tango™ CXCR3-bla U2OS cells have been functionally validated for a response to I-TAC (CXCL11).
In positive allosteric modulator assay method 1 (PAM1), cells were diluted in Assay Media to an appropriate cell density and were added to the assay plate. Peptides were added at increasing concentrations (1 nM-20 mcM) to the cells in the assay plate and incubated for 30 minutes. Ligand (CXCL9, CXCL10, or CXCL11) was added at an EC20 to all wells containing test compound. The assay plate was incubated for 16 hours at 37° C. Substrate Loading Solution was added to the assay plate and incubated for 2 hours at room temperature, in the dark. The assay plate was read on a fluorescence plate reader and the data was analyzed. PAM activity was calculated as follows:
% of PAM=((Test compound−Unstimulated)/(Stimulated−Unstimulated))×100.

[3] = target: T2, CXCR3 (Homo sapiens, UniProt P49682); test: Positive allosteric modulator assay method 2 (PAM2), CXCR3-bla U2OS; type: cell-based; set-up: TEV protease site; Gal4-VP16 transcription factor ('Ga14-VP16' [sic]); Tango cell line; host or cells: Tango GPCR-bla U2OS; settings: varying CXCL11, fixed peptide concentration
T2 sequence (P49682 1-368): T1 sequence (P49682 1-368)
Text: as §1
Positive allosteric modulation was confirmed with an additional test method using a dose response setting for CXCL11. In positive allosteric modulator assay method 2 (PAM2), cells were diluted in Assay Media to an appropriate cell density, and were added to the assay plate. CXCR3-bla U2OS were stimulated with varying concentrations of CXCL11 ligand and a pre-determined fixed concentration of either SG-3-00802 or SG-3-06683 and incubated for 30 minutes. Ligand (CXCL9, CXCL10, or CXCL11) was added at increasing concentrations to wells containing the test compound.

[4] = target: T3, human chemokine (C-X-C motif) receptor 3 (human, UniProt P49682 1-368); test: hit of DualSystems LRC-TriCEPS capture and SelectScreen reporter assay, confirmed in PathHunter beta-arrestin GPCR panel
T3 construct: whole, on cells; The PathHunter gpcrMAX panel uses a different, undescribed construct; also called CXCR3
T3 sequence (looked up): T1 sequence (P49682 1-368)

Molecule | T cell migration to suboptimal level of ligand [1] | Activation of CXCR3 [2] | activity of CXCL11 on the CXCR3 receptor (PAM2) [3] | binding result [4]
GQRQKHKPNECIVMVRGKRRIIKCKECMPKVSPRVKM (not fully specified; cysteine pairing not given here) [SG-3-06683] | increased migration | maintained | enhanced the activity of the endogenous ligand CXCL11 | –
B1 | – | – | – | binds
